The values below come from US20110256180A1 (CHILDREN S HOSPITAL AND RESEARCH CENTER AT OAKLAND, published 2011).

Assay [1] has as its target fHbp ID 22, wild-type (variant group 2, modular group III) (Neisseria meningitidis). The assay is described as follows: ELISA.
For assay [2], the target named is fHbp ID 77, wild-type (strain 8047, variant group 2, modular group VI) (Neisseria meningitidis). The assay is described as follows: ELISA.
Assay [3] has as its target fHbp ID 1 on live bacteria of N. meningitidis group B strain H44/76 (Neisseria meningitidis) (UniProt E6MV22). The assay is described as follows: cell-based or functional assay.
Assay [4] has as its target T1, human complement factor H (human, UniProt P08603 19-1231).
T1 construct: also called human fH; fH
The assay is described as follows: ELISA.

Assay [5] has as its target T1, human complement factor H. The assay is described as follows: ELISA, vs respective wildtype fHbp. For orientation: In an ELISA, binding on a coated surface is turned into a signal by an enzyme label.
The target in assay [6] is T1, human complement factor H. The assay is described as follows: ELISA, vs respective wildtype fHbp. The source holds these as a separate data set.
The target in assay [7] is T2, mouse factor H (native fH of wild-type mice) (mouse, UniProt P06909 19-1234).
T2 construct: also called mouse fH
The assay is described as follows: ELISA, fHbp on plate, mouse serum.

In assay [8] the target is T1, human complement factor H. The assay is described as follows: ELISA, fHbp on plate.

Where two headings read alike, the source gives them in different places.

T1 sequence (P08603 19-1231 limits assumed): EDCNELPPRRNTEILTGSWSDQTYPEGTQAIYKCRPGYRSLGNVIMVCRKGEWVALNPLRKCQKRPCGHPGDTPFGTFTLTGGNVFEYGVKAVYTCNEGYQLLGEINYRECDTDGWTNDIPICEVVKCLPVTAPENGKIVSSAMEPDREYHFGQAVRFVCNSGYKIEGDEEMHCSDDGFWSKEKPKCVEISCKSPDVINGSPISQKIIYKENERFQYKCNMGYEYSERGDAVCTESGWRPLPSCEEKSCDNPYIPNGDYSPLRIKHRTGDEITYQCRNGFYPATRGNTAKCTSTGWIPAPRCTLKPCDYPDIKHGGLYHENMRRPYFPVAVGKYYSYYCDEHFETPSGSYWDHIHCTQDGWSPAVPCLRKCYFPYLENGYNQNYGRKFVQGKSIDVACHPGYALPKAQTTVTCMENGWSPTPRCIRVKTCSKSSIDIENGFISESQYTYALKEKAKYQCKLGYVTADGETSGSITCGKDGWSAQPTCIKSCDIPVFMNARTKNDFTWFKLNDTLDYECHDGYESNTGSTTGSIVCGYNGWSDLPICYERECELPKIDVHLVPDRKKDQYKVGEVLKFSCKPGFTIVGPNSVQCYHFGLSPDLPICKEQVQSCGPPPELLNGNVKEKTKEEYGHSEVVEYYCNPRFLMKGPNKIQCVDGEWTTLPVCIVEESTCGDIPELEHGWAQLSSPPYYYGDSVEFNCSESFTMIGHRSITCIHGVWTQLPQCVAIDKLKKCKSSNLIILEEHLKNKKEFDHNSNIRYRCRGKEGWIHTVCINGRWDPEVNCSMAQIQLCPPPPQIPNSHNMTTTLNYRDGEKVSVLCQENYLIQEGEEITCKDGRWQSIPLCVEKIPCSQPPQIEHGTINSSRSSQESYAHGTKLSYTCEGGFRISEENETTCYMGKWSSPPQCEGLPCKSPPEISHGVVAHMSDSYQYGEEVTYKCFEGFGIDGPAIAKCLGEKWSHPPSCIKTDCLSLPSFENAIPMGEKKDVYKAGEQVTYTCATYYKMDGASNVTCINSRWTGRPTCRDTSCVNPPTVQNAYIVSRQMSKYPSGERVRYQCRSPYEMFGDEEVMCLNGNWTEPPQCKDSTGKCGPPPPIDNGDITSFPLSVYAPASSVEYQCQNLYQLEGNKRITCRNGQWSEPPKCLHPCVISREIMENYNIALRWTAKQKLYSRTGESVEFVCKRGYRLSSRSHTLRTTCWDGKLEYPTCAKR
T2 sequence (P06909 19-1234): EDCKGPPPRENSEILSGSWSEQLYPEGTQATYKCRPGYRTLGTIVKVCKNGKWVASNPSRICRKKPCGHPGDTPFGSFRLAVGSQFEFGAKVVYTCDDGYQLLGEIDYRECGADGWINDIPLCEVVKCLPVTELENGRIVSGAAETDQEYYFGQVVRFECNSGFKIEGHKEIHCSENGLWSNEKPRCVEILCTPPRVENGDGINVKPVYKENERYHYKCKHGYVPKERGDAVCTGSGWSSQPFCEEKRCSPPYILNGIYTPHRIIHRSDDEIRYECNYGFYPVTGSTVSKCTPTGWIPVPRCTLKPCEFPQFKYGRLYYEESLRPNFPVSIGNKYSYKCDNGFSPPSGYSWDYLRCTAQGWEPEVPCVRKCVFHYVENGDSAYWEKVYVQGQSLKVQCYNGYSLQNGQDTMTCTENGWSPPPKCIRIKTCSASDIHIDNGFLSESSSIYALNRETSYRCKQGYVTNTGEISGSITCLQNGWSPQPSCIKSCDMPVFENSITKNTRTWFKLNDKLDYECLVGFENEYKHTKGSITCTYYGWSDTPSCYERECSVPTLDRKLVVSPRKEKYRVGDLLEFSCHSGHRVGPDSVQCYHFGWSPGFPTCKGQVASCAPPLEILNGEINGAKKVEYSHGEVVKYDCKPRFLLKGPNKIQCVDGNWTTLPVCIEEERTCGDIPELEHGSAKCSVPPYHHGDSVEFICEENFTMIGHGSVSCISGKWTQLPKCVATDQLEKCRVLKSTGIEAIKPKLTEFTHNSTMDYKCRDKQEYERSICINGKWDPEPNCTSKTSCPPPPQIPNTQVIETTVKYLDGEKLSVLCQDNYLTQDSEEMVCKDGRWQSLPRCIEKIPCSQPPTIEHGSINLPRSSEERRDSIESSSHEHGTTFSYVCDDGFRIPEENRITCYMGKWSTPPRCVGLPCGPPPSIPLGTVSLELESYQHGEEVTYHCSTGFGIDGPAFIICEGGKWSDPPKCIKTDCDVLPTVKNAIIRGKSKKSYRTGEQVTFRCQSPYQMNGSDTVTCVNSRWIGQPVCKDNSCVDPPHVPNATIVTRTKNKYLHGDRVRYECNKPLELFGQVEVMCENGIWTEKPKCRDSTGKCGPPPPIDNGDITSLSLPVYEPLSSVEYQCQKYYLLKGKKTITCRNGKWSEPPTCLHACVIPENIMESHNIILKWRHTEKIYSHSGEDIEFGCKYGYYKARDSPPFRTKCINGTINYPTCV

With “anti-fHbp monoclonal antibody JAR 4 (murine)”, the percent less binding than to variant 1 fHbp (ID 1) in assay [1] and in assay [2] was 30% each time.

With “human IgG1 mouse chimeric anti-fHbp mAb502 (from UniProt P01857 1-330; P01834 1-107) (antibody)”, in assay [3], the Bactericidal Activity (BC50%), fH-depleted complement, mean amounted to 1.25 µg/mL and the Bactericidal Activity (BC50%), fH-repleted complement, mean is over 100 µg/mL.

In assay [3], “human IgG1 mouse chimeric anti-fHbp mAb JAR 5 (from UniProt P01857 1-330; P01834 1-107) (antibody)” registered a Bactericidal Activity (BC50%), fH-depleted complement, mean of 1.25 µg/mL and a Bactericidal Activity (BC50%), fH-repleted complement, mean of 23.5 µg/mL.

Consider “human IgG1 mouse chimeric anti-fHbp mAb JAR 3 (from UniProt P01857 1-330; P01834 1-107) (antibody)”, for which the Bactericidal Activity (BC50%), fH-repleted complement, mean in assay [3] is 15.2 µg/mL.

B1: fHbp ID 28 K199A mutant (other)
chain: CSSGGGGSGGGGVAADIGTGLADALTAPLDHKDKGLKSLTLEDSIPQNGTLTLSAQGAEKTFKAGDKDNSLNTGKLKNDKISRFDFVQKIEVDGQTITLASGEFQIYKQNHSAVVALQIEKINNPDKTDSLINQRSFLVSGLGGEHTAFNQLPGGKAEYHGKAFSSDDPNGRLHYSIDFTKKQGYGRIEHLKTLEQNVELAAAELAADEKSHAVILGDTRYGSEEKGTYHLALFGDRAQEIAGSATVKIGEKVHEIGIAGKQ
In the case of B1, the binding result in assay [4] is recorded as “binds”.

B2: fHbp ID 15, wild-type (natural chimera, modular group IV) (other)
chain: CSSGGGGSGGGGVAADIGAGLADALTAPLDHKDKGLKSLTLEDSISQNGTLTLSAQGAERTFKAGDKDNSLNTGKLKNDKISRFDFIRQIEVDGQLITLESGEFQVYKQSHSALTALQTEQVQDSEHSGKMVAKRQFRIGDIVGEHTSFGKLPKDVMATYRGTAFGSDDAGGKLTYTIDFAAKQGHGKIEHLKSPELNVDLAAADIKPDEKHHAVISGSVLYNQAEKGSYSLGIFGGQAQEVAGSAEVETANGIRHIGLAAKQ
notes: Recombinant; also called Pep 15 WT; peptide 15
As to B2, the “Fold-Decrease in fH binding” value in assay [5] and in assay [6] was 0 fold in each case.

B3: fHbp ID 1, wild-type recombinant factor H binding protein (strain MC58, variant 1, modular group I) (other)
chain: CSSGGGGVAADIGAGLADALTAPLDHKDKGLQSLTLDQSVRKNEKLKLAAQGAEKTYGNGDSLNTGKLKNDKVSRFDFIRQIEVDGQLITLESGEFQVYKQSHSALTAFQTEQIQDSEHSGKMVAKRQFRIGDIAGEHTSFDKLPEGGRATYRGTAFGSDDAGGKLTYTIDFAAKQGNGKIEHLKSPELNVDLAAADIKPDGKRHAVISGSVLYNQAEKGSYSLGIFGGKAQEVAGSAEVKTVNGIRHIGLAAKQ
notes: also called WT fHbp ID 1; Pep1
Take B3: in assay [7], the binding result is “no binding (tested: 1:100 dilution of serum)”.

B4: fHbp ID 77 R41S/D121A double mutant (other)
chain: CSSGGGGVAADIGARLADALTAPLDHKDKSLQSLTLDQSVSKNEKLKLAAQGAEKTYGNGDSLNTGKLKNDKVSRFDFIRQIEVDGQLITLESGEFQIYKQDHSAVVALQIEKINNPDKIASLINQRSFLVSGLGGEHTAFNQLPDGKAEYHGKAFSSDDAGGKLTYTIDFAAKQGHGKIEHLKTPEQNVELAAAELKADEKSHAVILGDTRYGSEEKGTYHLALFGDRAQEIAGSATVKIGEKVHEIGIAGKQ
B4: the “fold less binding to fH than wildtype fHbp ID 77” value in assay [8] is about 10 fold. Also, the “Fold-Decrease in fH binding” value in assay [6] is over 10 fold.

B5: fHbp ID 77 R41S/K113A/D121A triple mutant (other)
chain: CSSGGGGVAADIGARLADALTAPLDHKDKSLQSLTLDQSVSKNEKLKLAAQGAEKTYGNGDSLNTGKLKNDKVSRFDFIRQIEVDGQLITLESGEFQIYKQDHSAVVALQIEAINNPDKIASLINQRSFLVSGLGGEHTAFNQLPDGKAEYHGKAFSSDDAGGKLTYTIDFAAKQGHGKIEHLKTPEQNVELAAAELKADEKSHAVILGDTRYGSEEKGTYHLALFGDRAQEIAGSATVKIGEKVHEIGIAGKQ
For B5, the binding result in assay [8] is “no binding”. In assay [6], the “Fold-Decrease in fH binding” value was over 50 fold.

B6: fHbp ID 77 R41S/K119A double mutant (other)
chain: CSSGGGGVAADIGARLADALTAPLDHKDKSLQSLTLDQSVSKNEKLKLAAQGAEKTYGNGDSLNTGKLKNDKVSRFDFIRQIEVDGQLITLESGEFQIYKQDHSAVVALQIEKINNPDAIDSLINQRSFLVSGLGGEHTAFNQLPDGKAEYHGKAFSSDDAGGKLTYTIDFAAKQGHGKIEHLKTPEQNVELAAAELKADEKSHAVILGDTRYGSEEKGTYHLALFGDRAQEIAGSATVKIGEKVHEIGIAGKQ
Turning to B6, the “fold decrease in fH binding” value in assay [8] is about 5 fold. The “Fold-Decrease in fH binding” value in assay [6] is over 5 fold.

B7: fHbp ID 77 R41S/K113A double mutant (other)
chain: CSSGGGGVAADIGARLADALTAPLDHKDKSLQSLTLDQSVSKNEKLKLAAQGAEKTYGNGDSLNTGKLKNDKVSRFDFIRQIEVDGQLITLESGEFQIYKQDHSAVVALQIEAINNPDKIDSLINQRSFLVSGLGGEHTAFNQLPDGKAEYHGKAFSSDDAGGKLTYTIDFAAKQGHGKIEHLKTPEQNVELAAAELKADEKSHAVILGDTRYGSEEKGTYHLALFGDRAQEIAGSATVKIGEKVHEIGIAGKQ
Take B7: the “fold less binding to fH than wildtype fHbp ID 77” value in assay [8] was about 10 fold. Also, the “Fold-Decrease in fH binding” value in assay [6] was over 10 fold.
